Molecular target: T1, THP-1 lysate derived human trimeric ARG2 (Homo sapiens, UniProt P78540)
T1 construct: expressed in transfected cells; host or cells: THP-1 cells overexpressing human ARG2 (cell lysate)
T1 sequence (P78540 23-354): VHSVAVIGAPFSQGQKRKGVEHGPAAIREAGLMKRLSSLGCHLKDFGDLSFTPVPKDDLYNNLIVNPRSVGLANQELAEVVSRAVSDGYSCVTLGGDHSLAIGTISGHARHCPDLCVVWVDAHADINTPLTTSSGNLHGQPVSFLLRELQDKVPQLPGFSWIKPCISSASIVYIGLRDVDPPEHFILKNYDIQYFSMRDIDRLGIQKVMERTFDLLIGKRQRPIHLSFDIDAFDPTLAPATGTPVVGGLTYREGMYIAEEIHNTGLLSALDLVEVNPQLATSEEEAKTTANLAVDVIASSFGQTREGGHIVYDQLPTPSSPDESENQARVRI
Experiment: ELISA binding to THP-1 lysate derived human ARG2
Settings: biotinylated recombinant human IgG1, FIG. 6
Procedure: C0020187 and C0020065 IgGs were tested for their ability to bind to mammalian expressed human ARG2 produced in transfected THP-1 cells. Lysates of human ARG2 transfected THP-1 cells were prepared and binding to these lysates measured using an ELISA.
Cell lysates were prepared from THP-1 cells overexpressing human ARG2 and from wild type THP-1 cells. Between 600,000-1,000,000 cells were suspended in 1 ml tris-buffered saline (25 mM tris+150 mM sodium chloride in dH2O, pH 7.4) and cell lysates prepared using QIAshredders (QIAgen, UK; cat: 79654).
For the ELISA, maxisorp white plates (Nunc; cat: 437796) were coated overnight at 4° C. with rabbit anti-human ARG2 antibody (Abcam, ab137069) at 1 μg/ml in PBS. The next day, the plate was washed with PBS and blocked with casein blocker (Thermo Scientific, 37528). […]
The blocked ELISA plate was washed with PBS and 50 μl of the pre-incubation mixtures were transferred to the ELISA plate and incubated for 90 minutes at room temperature. […] Next, 100 μl PICO ELISA substrate (Thermo Scientific, 37070) was added to each well, the plate was incubated for 1 minute at room temperature in the dark before being read for luminescence using the Envision plate reader. Data were analysed using GraphPad Prism. […]

binding to THP-1 lysate derived human trimeric ARG2: strong binding
B1: C0020065: anti-ARG2 antibody, alternate lead isolation clone, VH SEQ ID NO: 2, VL SEQ ID NO: 7 (antibody, listed as Homo sapiens, V domains shown)
VH: GVNLRESGGGVVQPGRSLRLSCAASGFTFSSYAMHWVRQAPGKGLEWVAVISYDGSNKYYVDSVKGRFTISRDNSKNTLYLQMNSLRAEDTAVYYCARDSSQLWFDYWGRGTLVTVSS
VL: QSVVTQPPSVSGAPGQRVTISCTGSSSNIGTGYDVHWYQQLPGTAPKLLIYGNSNRPSGVPDRFSGSKSGTSASLAITGLQAEDEADYYCQSYDSSLSGSVVFGGGTQLTVL
modifications: C0020065

Source: patent US20220403048A1, “BINDING MOLECULES TO ARGINASE II [ARG2]” (Cancer Research Technology Limited, priority 2019, published 2022)
